These results are taken from patent US20200347384.

Series [1] addresses T1, HIV-1 reverse transcriptase (HIV RT) (Human immunodeficiency virus) (UniProt P03366+P03366). Briefly: MST. To be noted: TNA at all positions; triplicate.
Series [2] deals with T1, HIV-1 reverse transcriptase (HIV RT) (Human immunodeficiency virus). Nature of the series: EMSA. To be noted: TNA at all positions; ~500 pM after 1 h 37 C with snake venom phosphodiesterase (p160).

In the case of “AATAGTAAATTGATTTAAAAATTTCATAAATGCTACATAA [HIV-RT 3.17]”, the Kd in series [1] came to 0.38 nM; in series [2] it was 0.196 nM.
